Source: patent publication US20210101982A1 (Seagen, published 2021)

Experiments:
[1] = target: PD-L1 on cells (cancer cell lines expressing PD-L1; PD-L1+ aAPC/CHO-K1 cells) (human, UniProt Q9NZQ7 19-290); assay: cell-based or functional assay
[2] = target: T1, human PD-L1 (Acro Biosciences) (human, UniProt Q9NZQ7 19-238); assay: BLI (Octet Red 384), antibody on sensors, human PD-L1 in solution; head prints x10^3 S^-1, read as x10^-3 as KD = koff/kon requires
T1 construct: Bought protein, used in solution as the analyte in BLI; also called hPD-L1; CD274

[3] = target: T1, human PD-L1 (Acro Biosciences); assay: BLI (Octet Red 384), antibody on anti-human Fab-CH1 sensors, human PD-L1 in solution, monovalent;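 further: after association, a 1000 s dissociation phase ran in buffer without PD-L1, on- and off-rate constants came from fitting the binding curves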

T1 sequence (Q9NZQ7 19-238 limits assumed): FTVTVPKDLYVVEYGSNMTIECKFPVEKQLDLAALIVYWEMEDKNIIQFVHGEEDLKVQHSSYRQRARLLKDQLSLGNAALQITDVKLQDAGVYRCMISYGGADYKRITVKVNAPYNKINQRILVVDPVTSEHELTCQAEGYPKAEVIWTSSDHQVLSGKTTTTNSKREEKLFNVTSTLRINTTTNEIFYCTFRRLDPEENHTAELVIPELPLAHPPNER
Chain of PD-L1 on cells (cancer cell lines expressing PD-L1; PD-L1+ aAPC/CHO-K1 cells) (Q9NZQ7 19-290): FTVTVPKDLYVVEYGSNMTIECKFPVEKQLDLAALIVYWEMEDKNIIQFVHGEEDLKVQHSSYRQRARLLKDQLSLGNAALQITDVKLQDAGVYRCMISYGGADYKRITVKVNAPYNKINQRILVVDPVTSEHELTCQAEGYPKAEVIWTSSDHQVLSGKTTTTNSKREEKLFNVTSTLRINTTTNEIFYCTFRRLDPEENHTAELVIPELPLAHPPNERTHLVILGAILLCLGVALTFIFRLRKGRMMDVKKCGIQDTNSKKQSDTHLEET

Row | Binder | x50 (50% reduction in viability, CellTiter-Glo, 96 h) on 786-O cells [1] [ng/mL] | x50 (50% reduction in viability, CellTiter-Glo, 96 h) on BXPC3 cells [1] [ng/mL] | x50 (50% reduction in viability, CellTiter-Glo, 96 h) on KARPAS 299 cells [1] [ng/mL] | x50 (50% reduction in viability, CellTiter-Glo, 96 h) on L540CY cells [1] [ng/mL] | x50 (50% reduction in viability, CellTiter-Glo, 96 h) on MDA-MB-231 cells [1] [ng/mL] | koff [2] [s⁻¹] | Kd [3] [nM] | kon [3] [M⁻¹ s⁻¹]
1 | SG-559-02 - vc-MMAE (antibody, human IgG1, kappa, V domains shown, vc-MMAE drug-linker, average DAR of 4; sites not stated in the example) VH: QVQLVQSGAEVKKPGSSVKVSCKTSGDTFSTYAISWVRQAPGQGLEWMGGIIPIFGKAHYAQKFQGRVTITADESTSTAYMELSSLRSEDTAVYFCARKFHFVSGSPFGMDVWGQGTTVTVSS VL: EIVLTQSPATLSLSPGERATLSCRASQSVSSALAWYQQKPGQAPRLLIYDASNRATGIPARFSGSGSGTDFTLTISSLEPEDFAVYYCQQRSNWPTFGQGTKVEIKR | > 3000 | 19.1 | 4.44 | 26 | 26 |  |  | 
2 | SG-559-03 - MP-PEG8-VKG-Camptothecin (antibody, human IgG1, kappa, V domains shown, MP-PEG8-VKG-Camptothecin drug-linker, average DAR of 8; sites not stated in the example) VH: QVQLVQSGAEVKKPGSSVKVSCKTSGDTFSTYAISWVRQAPGQGLEWMGGIIPIFGKAHYAQKFQGRVTITADESTSTAYMELSSLRSEDTAVYFCARKFHFVSGSPFGMDVWGQGTTVTVSS VL: not shown | 1380 | 62.5 | 12.2 | 13.8 | 15.1 |  |  | 
3 | SG-559-03 - vc-MMAE (antibody, human IgG1, kappa, V domains shown, vc-MMAE drug-linker, average DAR of 4; sites not stated in the example) VH: QVQLVQSGAEVKKPGSSVKVSCKTSGDTFSTYAISWVRQAPGQGLEWMGGIIPIFGKAHYAQKFQGRVTITADESTSTAYMELSSLRSEDTAVYFCARKFHFVSGSPFGMDVWGQGTTVTVSS VL: not shown | > 3000 | 16.4 | 4.14 | 20.9 | 22.9 |  |  | 
4 | SG-559-04 - vc-MMAE (antibody, human IgG1, kappa, V domains shown, vc-MMAE drug-linker, average DAR of 4; sites not stated in the example) VH: QVQLVQSGAEVKKPGSSVKVSCKTSGDTFSTYAISWVRQAPGQGLEWMGGIIPIFGKAHYAQKFQGRVTITADESTSTAYMELSSLRSEDTAVYFCARKFHFVSGSGFGMDVWGQGTTVTVSS VL: not shown | > 3000 | 17.3 | 3.42 | 33.1 | 24.3 |  |  | 
5 | SG-559-04 - MP-PEG8-VKG-Camptothecin (antibody, human IgG1, kappa, V domains shown, MP-PEG8-VKG-Camptothecin drug-linker, average DAR of 8; sites not stated in the example) VH: QVQLVQSGAEVKKPGSSVKVSCKTSGDTFSTYAISWVRQAPGQGLEWMGGIIPIFGKAHYAQKFQGRVTITADESTSTAYMELSSLRSEDTAVYFCARKFHFVSGSGFGMDVWGQGTTVTVSS VL: not shown | 190 | 23.3 | 5.95 | 10.7 | 7.89 |  |  | 
6 | SG-559-02 - MP-PEG8-VKG-Camptothecin (antibody, human IgG1, kappa, V domains shown, MP-PEG8-VKG-Camptothecin drug-linker, average DAR of 8; sites not stated in the example) VH: QVQLVQSGAEVKKPGSSVKVSCKTSGDTFSTYAISWVRQAPGQGLEWMGGIIPIFGKAHYAQKFQGRVTITADESTSTAYMELSSLRSEDTAVYFCARKFHFVSGSPFGMDVWGQGTTVTVSS VL: EIVLTQSPATLSLSPGERATLSCRASQSVSSALAWYQQKPGQAPRLLIYDASNRATGIPARFSGSGSGTDFTLTISSLEPEDFAVYYCQQRSNWPTFGQGTKVEIKR | 283 | 20.1 | 6.72 | 9.97 | 10.2 |  |  | 
7 | SG-559-13 (antibody, human IgG1, kappa, V domains shown) VH: QVQLVQSGAEVKKPGSSVKVSCKTSGDTFSTYAISWVRQAPGQGLEWMGGIIPIFGKAHYAQKFQGRVTITADESTSTAYMELSSLRSEDTAVYFCARKFHFVSGSPFGMDVWGQGTTVTVSS VL: not shown |  |  |  |  |  | 0.00162 | 4.3 | 381000
8 | SG-559-05 (antibody, human IgG1, kappa, V domains shown) VH: QVQLVQSGAEVKKPGSSVKVSCKTSGDTFSTYAISWVRQAPGQGLEWMGGIIPIAGKAHYAQKFQGRVTITADESTSTAYMELSSLRSEDTAVYFCARKFHFVSGSPFGMDVWGQGTTVTVSS VL: not shown |  |  |  |  |  | 0.0424 | 119 | 357000
9 | SG-559-02 (antibody, human IgG1, kappa, V domains shown) VH: QVQLVQSGAEVKKPGSSVKVSCKTSGDTFSTYAISWVRQAPGQGLEWMGGIIPIFGKAHYAQKFQGRVTITADESTSTAYMELSSLRSEDTAVYFCARKFHFVSGSPFGMDVWGQGTTVTVSS VL: EIVLTQSPATLSLSPGERATLSCRASQSVSSALAWYQQKPGQAPRLLIYDASNRATGIPARFSGSGSGTDFTLTISSLEPEDFAVYYCQQRSNWPTFGQGTKVEIKR |  |  |  |  |  | 0.014 | 33.3 | 420000
10 | SG-559-09 (antibody, human IgG1, kappa, V domains shown) VH: QVQLVQSGAEVKKPGSSVKVSCKTSGDTFSTYAISWVRQAPGQGLEWMGGIIPIFGKAFYAQKFQGRVTITADESTSTAYMELSSLRSEDTAVYFCARKFHFVSGSPFGMDVWGQGTTVTVSS VL: not shown |  |  |  |  |  | 0.00664 | 25.5 | 260000
11 | SG-559-14 (antibody, human IgG1, kappa, V domains shown) VH: QVQLVQSGAEVKKPGSSVKVSCKTSGDTFSTYAISWVRQAPGQGLEWMGGIIPIFGKAHYAQKFQGRVTITADESTSTAYMELSSLRSEDTAVYFCARKFHFVSGSPFGMDVWGQGTTVTVSS VL: not shown |  |  |  |  |  | 0.00355 | 8.9 | 399000
12 | SG-559-08 (antibody, human IgG1, kappa, V domains shown) VH: QVQLVQSGAEVKKPGSSVKVSCKTSGDTFSTYAISWVRQAPGQGLEWMGGIIPIFGKAAYAQKFQGRVTITADESTSTAYMELSSLRSEDTAVYFCARKFHFVSGSPFGMDVWGQGTTVTVSS VL: not shown |  |  |  |  |  | 0.0219 | 66.6 | 329000
13 | SG-559-16 (antibody, human IgG1, kappa, V domains shown) VH: QVQLVQSGAEVKKPGSSVKVSCKTSGDTFSTYAISWVRQAPGQGLEWMGGIIPIFGKAHYAQKFQGRVTITADESTSTAYMELSSLRSEDTAVYFCARKFHFVSGSPFGMDVWGQGTTVTVSS VL: not shown |  |  |  |  |  | 0.00953 | 24.7 | 386000
14 | SG-559-06 (antibody, human IgG1, kappa, V domains shown) VH: QVQLVQSGAEVKKPGSSVKVSCKTSGDTFSTYAISWVRQAPGQGLEWMGGIIPIFGAAHYAQKFQGRVTITADESTSTAYMELSSLRSEDTAVYFCARKFHFVSGSPFGMDVWGQGTTVTVSS VL: not shown |  |  |  |  |  | 0.025 | 79.9 | 313000
15 | SG-559-10 (antibody, human IgG1, kappa, V domains shown) VH: QVQLVQSGAEVKKPGSSVKVSCKTSGDTFSTYAISWVRQAPGQGLEWMGGIIPIFGKAHYAQKFQGRVTITADESTSTAYMELSSLRSEDTAVYFCARKFHFVSGAPFGMDVWGQGTTVTVSS VL: not shown |  |  |  |  |  | 0.118 | 288 | 410000
16 | SG-559-17 (antibody, human IgG1, kappa, V domains shown) VH: QVQLVQSGAEVKKPGSSVKVSCKTSGDTFSTYAISWVRQAPGQGLEWMGGIIPIFGKAHYAQKFQGRVTITADESTSTAYMELSSLRSEDTAVYFCARKFHFVSGSPFGMDVWGQGTTVTVSS VL: not shown |  |  |  |  |  | 0.0057 | 12.5 | 456000
17 | SG-559-15 (antibody, human IgG1, kappa, V domains shown) VH: QVQLVQSGAEVKKPGSSVKVSCKTSGDTFSTYAISWVRQAPGQGLEWMGGIIPIFGKAHYAQKFQGRVTITADESTSTAYMELSSLRSEDTAVYFCARKFHFVSGSPFGMDVWGQGTTVTVSS VL: not shown |  |  |  |  |  | 0.00347 | 7.5 | 462000
18 | SG-559-04 (antibody, human IgG1, kappa, V domains shown) VH: QVQLVQSGAEVKKPGSSVKVSCKTSGDTFSTYAISWVRQAPGQGLEWMGGIIPIFGKAHYAQKFQGRVTITADESTSTAYMELSSLRSEDTAVYFCARKFHFVSGSGFGMDVWGQGTTVTVSS VL: not shown |  |  |  |  |  | 0.01 | 25.6 | 390000
19 | SG-559-03 (antibody, human IgG1, kappa, V domains shown) VH: QVQLVQSGAEVKKPGSSVKVSCKTSGDTFSTYAISWVRQAPGQGLEWMGGIIPIFGKAHYAQKFQGRVTITADESTSTAYMELSSLRSEDTAVYFCARKFHFVSGSPFGMDVWGQGTTVTVSS VL: not shown |  |  |  |  |  | 0.012 | 24.5 | 490000
20 | SG-559-07 (antibody, human IgG1, kappa, V domains shown) VH: QVQLVQSGAEVKKPGSSVKVSCKTSGDTFSTYAISWVRQAPGQGLEWMGGIIPIFGRAHYAQKFQGRVTITADESTSTAYMELSSLRSEDTAVYFCARKFHFVSGSPFGMDVWGQGTTVTVSS VL: not shown |  |  |  |  |  | 0.00284 | 10 | 285000
